Test results: the nanobody polyreactivity screen of Harvey et al. (2022)

Assay: yeast display, Sf9 membrane polyspecificity reagent, FACS + sequencing; frameworks hold sequencing errors
Summary of the method: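 In a synthetic yeast display library (Saccharomyces cerevisiae BJ5465), nanobody expression was induced with galactose for 36–48 hours. FACS gates were set low and high (top ~1%) using anti-HA fluorescence for expression and streptavidin fluorescence for binding of the Sf9 membrane reagent. Each polyreactivity label is drawn from the gate of origin.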
With “QVQLVETGGGLVQAGGSLRLSCAASGNHFSTYTMGGYRQAPGKERELVAAISTSGTSTYYADSVKGRFTISRDNAKNTVYLQMNSLKPEDTAVYYCAASYLRSSQRMDYWGQGTQVTVSS” the “polyreactivity (PSR sort gate)” value was “low polyreactivity”.
For “QVQLVETGGGLVQAGGSLRLSCAASGNTFAGNAMGWYRQAPGKERELVAAISRSGVTTRYADSVKGRFTISRDNATNTVYLQMNSLKPEDTAVYYCNADPRLRQNRDYWGQGTQVTVSS”, the “polyreactivity (PSR sort gate)” value was “high polyreactivity”.
For “QVQLVETGGGLVQAGGSLRLSCAASGPFYPYYAMGSYRQAPGKERELVATISTAGSTNYADSVKGRFTISRDNATNTVYLQMNSLIPEDTAVYYCATRNTWYHRGYDYWGQGTQVPVSS”, the “polyreactivity (PSR sort gate)” value was “low polyreactivity”.
In the case of “QVQLVETGGGLVQAGGSLRLSCAASGRIFWRNDMGWYRQAPGKERELVAAISGSGGSTSYADSVKGRFTISRDNAKNTVYLQLNSLKPEDTAVYYFAADSESVGYEYWGQGTQVTVSS”, the “polyreactivity (PSR sort gate)” value is reported as “high polyreactivity”.
With “QVQLVETGGGLVQAGGSLRLSCAASGRIFYGNAMGWYRHAPGKERELVAAITRSGSSTYYADSVKGRFTISRDNAKNTVYLLMNSLKPEDTAVSYCAVKYFDYVGQYAYYYWGQGTQVTVSS” the “polyreactivity (PSR sort gate)” value was “high polyreactivity”.
For “QVQLVETGGGLVQAGGSLRLSCAASGRTFTKYAMGWYRQAPGKERELVAAISGNGGSTHYADSVKGRFTISRDNAKNTVYLQMNSLKPEDTAVYYCAADHRHKSNSWGQGTQVTVSS”, the “polyreactivity (PSR sort gate)” value was “low polyreactivity”.
With “QVQLVETGGGLVQAGGSLRLSCAASGRTFVGNAKGWYRPAPGQERELVADITWSGDITYYADSVKGRFTISRDHAKNSVYLQMNSLKPEDTAVYYCAADYHRRRTDYDYWGQGTQVTVSS” the “polyreactivity (PSR sort gate)” value was “low polyreactivity”.
With “QVQLVETGGGLVQAGGSLRLSCAASGRTLIGNAMGWYRQAPGKERELVAAISFRGTRTYYADSVKGRFTISRDNAKNTFYLQMNSLKPEDTAVYYCNVYTRDRGYDYWGQGTQVTVSS” the “polyreactivity (PSR sort gate)” value was “high polyreactivity”.
With “QVQLVETGGGLVQAGGSLRLSCAASGRTLTCYAMGWYRQAPGKERELVAAISWSGGSTYYADSVKGRFTISRDNAKNTVYLQMYSLIPEDTAVYYCAADRVRSYFSRYYSTPLDYYWGQGTQVTVSS” the “polyreactivity (PSR sort gate)” value was “high polyreactivity”.
In the case of “QVQLVETGGGLVQAGGSLRLSCAASGRTMPYYAMGWYRQAPGKERELVATISSRGGSTYYADSVKGRFTISRDNAKNTVYLQMNSLKPEDTAVYYCAARGNTPRTRRYGYWGQGTQVTVSS”, the “polyreactivity (PSR sort gate)” value is reported as “high polyreactivity”.
With “QVQLVETGGGLVQAGGSLRLSCAASGRTYSTYAMGWYRQAPGKERDLVADISWRGAPTYYADSVKGRFTISRDNAKNTVYLQIISQKPEYTAVYYFAAAPYGYLRYEYWGLGTQVTVSS” the “polyreactivity (PSR sort gate)” value was “high polyreactivity”.
For “QVQLVETGGGLVQAGGSLRLSCAASGSIFGDNAMGWYRQAPGKERELVAAIDQSGDSTYYADSVKGRFTISRDNAKNTVYLQMNSLKPEDTAVYYCAAQSYDYWYDYDYWGQGTQVTVSS”, the “polyreactivity (PSR sort gate)” value was “high polyreactivity”.
In the case of “QVQLVETGGGLVQAGGSLRLSCAASGSIFIYFAMGWYRQAPGKERELVAAIDRSGGNTYYADSVKGRFTLSRDYAKNTVYLQMNSLKPEDTAVYYCAALVHRRVQYDYWGQGTQVTVSS”, the “polyreactivity (PSR sort gate)” value is reported as “high polyreactivity”.
In the case of “QVQLVETGGGLVQAGGSLRLSCAASGSIFKNNAMGGYRQAPGKERELVAAIRSYGGSTYYADSVKGRFTISRDNAKNTVYLQMKSLKPEDTAVYYCAARYRSYPTYYQYNYWGQGTQVTVSS”, the “polyreactivity (PSR sort gate)” value is reported as “high polyreactivity”.
With “QVQLVETGGGLVQAGGSLRLSCAASGSIFQGYAMGWYRQAPGKERELVAGITSSGGSTHYADSVKGRFTISRDNAKNTVYLQMNSLKPEDTAVYDYWGQGTQVTVSS” the “polyreactivity (PSR sort gate)” value was “low polyreactivity”.
With “QVQLVETGGGLVQAGGSLRLSCAASGSIFQYYAMGSYRQAPGKERELVAAISSGGRTNYADSVKGRFTISRENAKNSVYLQMNSLKPEDTAVYYCAAARYYYQVYRWEYDYWGQGTQVTVSS” the “polyreactivity (PSR sort gate)” value was “high polyreactivity”.
With “QVQLVETGGGLVQAGGSLRLSCAASGSIFTYYAMGWYRQAPGKEREFVAGISWSGGRTYYADSVKGRFTISRDNAKNTVYLQMNSLKPEDTAVYYCAAEIHDRFDSWGQGTQVTVSS” the “polyreactivity (PSR sort gate)” value was “low polyreactivity”.
With “QVQLVETGGGLVQAGGSLRLSCAASGSTFVSNAMGWYSQAPGKERELVAAISYIGGGTYYADSEKGRFTISRDNAKNTVYLQMNSLKPEDTAVYYCAAGTPYDLDDYCGQGTQVTVSS” the “polyreactivity (PSR sort gate)” value was “low polyreactivity”.
With “QVQLVETGGGLVQAGGSLRLSCAASGSTFVYYAMGWYRQAPGKERELVAAISSGGNTKYADSVKGRFTISRDNAKNTVYLQMNSLKPEDTEVYYCARESQSYYDHDYWGQVTQVTVSS” the “polyreactivity (PSR sort gate)” value was “low polyreactivity”.
With “QVQLVETGGGLVQAGGSLRLSCAASGSTFWYNAMGWYRQAPGKERELVAAISRSGATTYYADSVKGRFTISRDNAKNTVYLQMNSLKPEDTAVYYCNAVISPSSYVRNSDYWGQGTQVTVSS” the “polyreactivity (PSR sort gate)” value was “low polyreactivity”.
With “QVQLVETGGGLVQAGGSLRLSCAASGSTFWYNAMGWYRQAPGKESELVAAISRSGATTYYADSVKGRFTISRDNAKNTVYLQMNSLKPEDTAVYYCNKVRQYRYRGYTFDYWGQGTQVSVSS” the “polyreactivity (PSR sort gate)” value was “low polyreactivity”.
In the case of “QVQLVETGGGLVQAGGSLRLSCAASGSTIYLYAAMGLYRQAPGKESELVAAISGSGGSTFYADSVKGRFTISRDNAKNTVYLQMNSLKPEDTAVYYCAADKRYPYETYRPSVSASDSWGQGTQVTVSS”, the “polyreactivity (PSR sort gate)” value is reported as “low polyreactivity”.
With “QVQLVETGGGLVQAGGSLRLSCAASGYNLNSNAMGWYRQAPGKEREFVASITESGGTTYYADSVKGRFTISRDNAKNTVYLQMNSLKPEDTAVYYCAADLVDWWYSSDLYDYWGQGTQVTVSS” the “polyreactivity (PSR sort gate)” value was “high polyreactivity”.
In the case of “QVQLVETGGGLVQAGGSLRLSCAPSGSIFEYNGMGWYRQAPGKERELVAAITTTGTTDYADSVKGRFTISRDNAKNTVYLQMNSLKPEDTAVYYCAADYTYYYKGEYDYWGQGTQVTVSS”, the “polyreactivity (PSR sort gate)” value is reported as “low polyreactivity”.
In the case of “QVQLVETGGGLVQAGGSLRLSCAPSGSIFGLNAMGWYRQAPGKERELVAAINTDGDTYYADSVKGRFTISRDNAKNTVYLQMNSLIPEDTAVFYCAADYYWDPFDSNFGHVPQEYESWGQGTQVTVSS”, the “polyreactivity (PSR sort gate)” value is reported as “low polyreactivity”.
In the case of “QVQLVETGGGLVQAGGSLRLSCAPSGSTFNSNVMGWYRQAPGKERELLAAISRSGGNTYYADSVKGRFTISRDNAKNTVYLQMNSLKQEDTAVYYCNVVFFSYYHGAYRGYDYWGQGTQVTVSS”, the “polyreactivity (PSR sort gate)” value is reported as “high polyreactivity”.
In the case of “QVQLVETGGGLVQAGGSLRLSCPASGRTFAKYAMGRYRQAPGKERELVAAISDSGGSTYYEDSVKGRFTISRDNAKNTVYLQMNSLKPEDTAVYYCAADGRYTYYWGQGTQVTVSS”, the “polyreactivity (PSR sort gate)” value is reported as “high polyreactivity”.
In the case of “QVQLVETGGGLVQAGGSLRLSCSASRLTFVYYTMGWYRQAPGKERELVAAITSSGGSTYYADSLKGRFTISRDNAKNTVYLQMNSLKPEDTAVSYCNAYWTYEFPSYDYWGPGTQVTVSS”, the “polyreactivity (PSR sort gate)” value is reported as “low polyreactivity”.
For “QVQLVETGGGLVQAGGSLRLSFAASGIISYHNAMGWYRQAPGKERELLAGITYSGGSTYYEDSVKGRFTISRVNAKNTVYLQMNSMKPEDTAVYFCAARVVYWTWSCLSKMDYWGQGTQVTVSS”, the “polyreactivity (PSR sort gate)” value was “high polyreactivity”.
With “QVQLVETGGGLVQAGGSLRLSSAASGRTFYRYAMGWYRQAPGKDRELVATISRSGANTYADSVKGRFTISRDNAKNTVYLQMNSLKPEDTAVYYCNAGQYKGWGRMDYWGQGTQVTVSS” the “polyreactivity (PSR sort gate)” value was “high polyreactivity”.
In the case of “QVQLVETGGGLVQAGGSLRLSSAASGSTFRDYDMGWYRQARGKERELVAAISLSGGRTHYADSVKGRFTISRDNAKNTVYLQMNSLKPEDTAVYYCAARNSGPVQYYYWGQGTHVTVSS”, the “polyreactivity (PSR sort gate)” value is reported as “low polyreactivity”.
For “QVQLVETGGGLVQAGGSLRLSSAASGSTFTYNVMGWYRQAPGKERELVAAISRIAGRTYYADSVKGRFTISRDTAKNTVYLQMNSLKPEDTAVYYCAALALKWRYDFWGQGTQVTVSS”, the “polyreactivity (PSR sort gate)” value was “high polyreactivity”.
For “QVQLVETGGGLVQAGGSLSLSCAASGSTFAYYAMGWYRQAPGKERELVAGITWTGGSTYYADSVKGRFTISRDNAKNTVYLQMNSLKPEDTAVYYCAVTYPYGYEYDHWGQGTQVTVSS”, the “polyreactivity (PSR sort gate)” value was “low polyreactivity”.
In the case of “QVQLVETGGGLVQAGGSRRLICAATGRIFYWYAMGCYRQAPGKERELVATISSAGTTYYADSVKGRFTISRDNAKNTVYLQMNSLKQEDTAVYYCAVPRVGLHGIGSDYWGQGTQVTVSS”, the “polyreactivity (PSR sort gate)” value is reported as “high polyreactivity”.
In the case of “QVQLVETGGGLVQAGGTLRLSCAASGSTFNAYAKGWYIQAPGKERELVAVISSSGGRTYYADSEKGRFTISRDNAKNTVYLQLNSLKPEDTAVYYCNADVKYLYNHWGQGTQVTVSS”, the “polyreactivity (PSR sort gate)” value is reported as “high polyreactivity”.
In the case of “QVQLVETGGGLVQAGSSLRLSCAASGSTFIVYAMGWYRQAPGKEREFVAAITYRGGSSYYADSVKGRFTISRDNAKNTVYLQMNSLKPEDTAVYYCATETDRYPYIRRYQFPYYYWGQGTQVTVSS”, the “polyreactivity (PSR sort gate)” value is reported as “high polyreactivity”.
With “QVQLVETGGRKVQPGGSLRLSCAASRRTFDHNAMGWYRQAPGKERELVAAITWSGGITDYADSVKRPFTISRDNAKNTVYLEMFSLKPEDTAVWGQGTQVSVSS” the “polyreactivity (PSR sort gate)” value was “low polyreactivity”.
For “QVQLVETGRGLVQAGGSLRLSSAASGFTFGPYDMGWYIQAPGKERELVATIRSGDSTKYADSVKGRFTISRDNAKNTVYLQMNSLKPEDSAGYYCARDARASARRKRDDYWGQGTQVTVSS”, the “polyreactivity (PSR sort gate)” value was “low polyreactivity”.
With “QVQLVETVGCLVQAGGSLRLSSAASGRIFPYNAMGRYRQAPGKERELVAAIDWRDNTYYADSVKGRFTISRDNATNTVYLQMNSLIPEDTAVYDCNVDYTDYFLNKYDYWGQGTQVTVSS” the “polyreactivity (PSR sort gate)” value was “low polyreactivity”.
With “QVQLVGSGGGLVQAGGSLRLSCAASGRTFDRNTMGWYRQAPGKERELVAAISSSGGSTYYADSVKGRFTISRDNAKNTVYLQMNSLKPEDTAVYYCAVLSRQYFRYGYDYWGQGTQVTVSS” the “polyreactivity (PSR sort gate)” value was “high polyreactivity”.
With “QVQLVGSGGGLVQAGGSLRLSCAASGRTFWTNAMGWYRQAPGKERELVAAIRNSGGRTYYADSVKGRFTISRDNAKNTVYLQMNSLKPEDTAVYYCNARSSIRPRQGGYEHWGQGTQVTVSS” the “polyreactivity (PSR sort gate)” value was “low polyreactivity”.
